Laboratory results from publication doi:10.1101/2020.09.08.280818.

Columns and labels:
[1] = biological target: human ACE2 peptidase domain (PD), Avi-tagged (human); assay: BLI
[2] = biological target: SARS-CoV-2 spike glycoprotein stabilised in the prefusion conformation (P2 S), TwinStrep-tagged (SARS-CoV-2) (UniProt P0DTC2); assay: cryo-EM structure

Substance “SARS-CoV-2 spike glycoprotein stabilised in the prefusion conformation (P2 S), TwinStrep-tagged (from UniProt P0DTC2 14-1273) (natural protein)” has a Kd [1] of 1 nM and a stoichiometry N [2] of 3.
